Laboratory results from paper PMC5587771.
Where two headings read alike, the source gives them in different places.

Tests used:
SmAP2, NT-647 labelled = SmAP2, NT-647 labelled (Sulfolobus solfataricus, UniProt Q980S8 1-87); test: MST
SmAP2 [1] = molecular target: T1, SmAP2 (Sulfolobus solfataricus, UniProt Q980S8 1-87); test: MST
SmAP1 = molecular target: T2, SmAP1 (Sulfolobus solfataricus, UniProt Q97ZQ0 1-79); test: EMSA
T2 sequence: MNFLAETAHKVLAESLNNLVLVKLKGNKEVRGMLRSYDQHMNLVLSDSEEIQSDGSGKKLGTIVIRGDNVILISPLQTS

SmAP2 [2] = molecular target: T1, SmAP2; test: MST; remark: listed apart in the source
SmAP2 T40H = SmAP2 T40H (Sulfolobus solfataricus, UniProt Q980S8 1-87, T40H); test: EMSA

Q: GGAUGGAUAUUAGGAAAUG (ssRNA) [SmAP2-cRBM] was tested. Which Kd (SmAP2, NT-647 labelled) did it give?
A: The Kd was 42.1 ± 17.8 nM.

Q: How did the Kd (SmAP2 [1]) turn out when GGAGAUAUAGUAGGAUAG (ssRNA) [2194-RBM] was run?
A: Its Kd is 14.4 ± 3.3 nM.

Q: Does GGAUGGAUAUUAGGAAAUG (ssRNA) [SmAP2-cRBM, FAM] bind (SmAP1)?
A: Result: no binding

Q: What about the Kd (SmAP2 [2]) of the same binder?
A: Its Kd is 32.7 ± 14.4 nM.

Q: Does GGAUGGAUAUUAGGAAAUG (ssRNA) [SmAP2-cRBM, FAM] bind (SmAP2 T40H)?
A: Result: no binding

Q: With UUUUUUUUUUUUUUU (ssRNA) [poly(U)15] as the binder, how does the Kd (SmAP2, NT-647 labelled) read?
A: Its Kd is 426 ± 92 nM.

Q: How did the Kd (SmAP2 [1]) turn out when GGAUGGAUAUUAGGUACUGGG (ssRNA) [1742-RBM] was run?
A: The Kd was 5.9 ± 5.5 nM.
